Experimental data: the RNAGym collection of RNA variant scans (doi:10.1073/pnas.2313332121)
Fewer inactive variants are shown than the library holds.

B1: TPR 5TU (parent)
chain: GGAUCUUCUCGAUCUAACAAAAAAGACAAAUCUGCCACAAAGCUUGAGAGCAUCUUCGGAUGCAGAGGCGGCAGCCUUCGGUGGCGCGAUAGCGCCAACGUUCUCAACUAUGACACGCAAAACGCGUGCUCCGUUGAAUGGAGUUUAUCAUG

Variants of: B1
Experiment: polymerase ribozyme fitness, log enrichment relative to wild type (log ratio); higher = more active; in vitro selection for triplet polymerase activity
Procedure, shortened: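 Fitness is a logarithmic measure of how a genotype enriched relative to the wild type, with replicate averages weighted by inverse variance. The logarithm uses base 2, and enrichment came from Illumina sequencing of input and output libraries. Those libraries were PCR-built, transcribed mutants of each subunit of a heterodimeric triplet polymerase ribozyme, passed through one triplicate in vitro selection round that included frozen incubation at −7 °C, gel excision of extended constructs and streptavidin-bead capture. Genotypes were kept only if they had ≥10 input reads and ≥1 read per output.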
In the case of GGAUCUUCUCGAUCUAAGUAAAAAGACAAAUCUGCCACAAAGCUUGAGAGCAUCUUCGGAUGCAGAGGCGGCAGCCUUCGGUUGCGCGAUAGCGUCAACGUUCUCAACUAUGACACGUAAAACGCGUGCUCCGUUGAAUGGAGAUUAUCAUG, the “polymerase ribozyme fitness (log ratio)” value is reported as -3.01.
In the case of GGAUCUUCUCGAUCUAAGAAAAUAGACAAAUCUGCCACGAAGCUUGAGAGCAUCGUCGGAUGCAGAGGCGGCUGCCUUCGGUGGCGCGGUAGCGCCUACGUUCUCAACUAUGACACGCAAAACGCGUGCUCCGUUGAAUGGAGUUUAUCAUG, the “polymerase ribozyme fitness (log ratio)” value is reported as ≤ -4.2.
With GGAUCUUCUCGAUCUAAGAAAAAGGACAAAUCUGCCACAAAGCUUGAGAGCAUCUUUGGAUGCAGAGGCGGCAGCCUUCGGUGGCGCGAUAGGCCCAACGUUCUCAACUAUGACACCCAAAACGCGUGCUCCGUUGAAUGGAGUUUAUCAUG the “polymerase ribozyme fitness (log ratio)” value was ≤ -4.2.
In the case of GGAUCUUCUCGAUCUAAGAAAAAGGACAAAUCUGCCACAAAGCUUGAGAUCAUCAUCGGAUGCAGAGGCGGCAGCCUUCGGUGGCGCGAUAGCGCCAACGUUCUCCACUAUGACACGCAAAACGAGUGCUCCGUUGAAUGGAGUUUAUCAUG, the “polymerase ribozyme fitness (log ratio)” value is reported as ≤ -4.2.
For GGAUCUUCUCGAUCUAAGAAAAAUGACAAAUCAGCCACAAAGCUUGAGAGCAUCUUCGGAUGCAGAGGCGGCAGCCUUCGGUGGCGCGAUAGCGCCAACGUUCUCAACUAUGACACGCAAAACACGUGCUCCGUAGAAUGGAGUUUAUCAUG, the “polymerase ribozyme fitness (log ratio)” value was ≤ -4.2.
With GGAUCUUCUCGAUCUAAGAGAAAACACAAAUCGGCCACAAAGCUUGAGAGCAUCUUCGGAUGCAGAGUCGGCAGCCUUCGGUGGCGCGAUAGCGCUAGCGUUCUCAACUAUGACACGCAAAACGCGUGCUCCGUUGAAUGGAGUUUAUCAUG the “polymerase ribozyme fitness (log ratio)” value was ≤ -4.2.
With GGAUCUUCUCGAUCUAAGAAAGCAGACAAAUCUGCCACAAAGCUUGAGAGCAUCUUCGGAUGCAGAGGAGGCAGCCUUCGGUGGCUCGAUAGCGCCAACGUUCUCAACUAUGACACGCAAAACGCGUGCUCCGUUGAAUGGAGUUUAUCAUG the “polymerase ribozyme fitness (log ratio)” value was ≤ -4.2.
For GGAUCUUCUCGAUCUAAGAAAAACGACAAAUCUACCACAAAGCUUGAGAGCAUCUUAGGAUGCAGAGGCGGCAGCCUUCGGUGGUGCGUUAGCGCCGACGUUCUCAACUAUGACACGCAGUACGCGUGCUCCGUUGAAUGGAGUUUAUCAUG, the “polymerase ribozyme fitness (log ratio)” value was ≤ -4.2.
In the case of GGAUCUUCUCGAUCUAAGACAAAAGACAAAUAUGCCACACAGCUUGAGAGCAACUUCGGAUGCAGAGGCGGCAGCCUUCGGUGGCGCGAUGGCGCCAACGUUCUCAACUAUGACACGCAAAACGCGUGCUCCGUUGAAUGGAGUUUAUCAUG, the “polymerase ribozyme fitness (log ratio)” value is reported as ≤ -4.2.
For GGAUCUUCUCGAUCUAAGAAAAAUGACAAAUCUGCCACAAAGCUUGAGAGCAUCUUCGGAUGCAGAGGCGGCAGCAUUCGGUGGCGCGAUAGCGUCAACGUUCUCAACUAUGACACGCAAAACGCGUGCUCCGUUGAAUGAAGUUUAUCAUG, the “polymerase ribozyme fitness (log ratio)” value was -3.98.
With GGAUCUUCUCGAUCUAAGAAGAAAGACAAAUCUGCCACAAAGCUUGAGAGCAUCUUCGGAUGCAGAGGCGGCAGCCUUCGGUGGCGCGAUAGUGCCAACGUUCUCAACUAUGACACGCAAAACGCGUGCUCCGUUGAAUGGAGUUUAUAAUG the “polymerase ribozyme fitness (log ratio)” value was ≤ -4.2.
With GGAUCUUCUCGAUCUAAGAAGAAAGACAAAUCUGCCACAAAGCUUGAGAGCAUCUUCGGAUGCAGAGGCGGCAGCCUUCGGUGGCGCGAUAGCGCCAACGUUCUCAACUAUGACACGCAAAACGCGUGCUCCGUUGAAUGGAGUUUAUCAUG the “polymerase ribozyme fitness (log ratio)” value was -0.433.
For GGAUCUUCUCGAUCUAAGAAAAAAGCCAAAUCUGCCACAAAGCUUGAGAGCAUAUUCGGAUACAGAGGCGGCAGCGUUCGGUGGCGAGAUAGCGCCCACGUUCUCAACUAUGACACGCAAAACGCGUGCUCCGUUGAAUGGAGUUUAUCUUG, the “polymerase ribozyme fitness (log ratio)” value was ≤ -4.2.
With GGAUCUUCUCGAUCUAAGAAAAAUGACAAAUCUGCCACAAAGCUUGAGAGCAUCAUCGGAUGCAGAGGUGGCAACCUUCGGUGGCGCGAUAGCGCCAACGUUCUCAACUAUGACACGCAAAACGCGUGCUCCGUUGAAUGGAGUUUAUCAUG the “polymerase ribozyme fitness (log ratio)” value was -2.16.
For GGAUCUUCUCGAUCUAAGACAAAAGACAAAUCUUCCACAAAGCUUGAGAGCAUCGUCGGAUGCAGAGGCGGCAGCCUUCGGUGGCGCGAUAGCGCCAACGUUCUCAACUAUGACACGUAAAAUGCGUGCUCCGUUGAAUGGAGUUUAUCAUG, the “polymerase ribozyme fitness (log ratio)” value was -4.18.
For GGAUCUUCUCGAUCUAAGACAAAAGACAAAUCUGCCACAAAGCUUGAGAGCGUCUUCGGAUGCAGAGGCGGCUGCCUUCGGUGGCGCGAUAGCGCCAACGUUCUCAACUAUGACACGCAGAACGCGUGCUCCGUUGAAUGGAGUUUAUCAUG, the “polymerase ribozyme fitness (log ratio)” value was -3.02.
With GGAUCUUCUCGAUCUAAGAUAAAAGACAAAUCUGCCACAAAGCUUGAGAGCAUCUUCGGAUGCAGAGGCGGCAGCCUUCGGUGUCGCGAUAGCGCCAACGUUCUCAACUAUGACACGCAAAACGCGUGCUCCGUUGAAUGGAGUUUAUCAUG the “polymerase ribozyme fitness (log ratio)” value was -3.75.
For GGAUCUUCUCGAUCUAAGAAGAAUGACAAAUCUGCCACAACGCUUGAGAGCAGGUUCGGAUGCAGAGGCGGCAGCCUUCGGUGUCGCGAUAUGGCCAACGUUCUCAACUAUGACACGCAAAACGCGUGCUCCGUUGAAUGGACUUUAUCAUG, the “polymerase ribozyme fitness (log ratio)” value was ≤ -4.2.
In the case of GGAUCUUCUCGAUCUAAGAAAACAGACAGAUCUGCCACAAAGCUUGAGAGUAUCUUCGGAUGCAGAGGCGGGAGCCUUCGAUGGCGCGAUAGCGCCAACGUUCUCAACUAUGACACGCAAAACGCGUGCUCCGUUGAAUUGAGUUUAUCAUG, the “polymerase ribozyme fitness (log ratio)” value is reported as ≤ -4.2.
